Measurements taken from PMC9637144.

Target: human IGF1R ectodomain (Δβ mutant) (human) (UniProt P08069)
Test: radioligand binding

human IGF-1 (unlabeled) (from UniProt P05019 49-118) (ligand)
IC50: 400 pM
